Bounds are passed on as bounds.

Holding throughout (experiment): cell-based or functional assay
In assay [1] the target is HIV-1 Env pseudovirus 235-47 (HIV-1).
Assay [2] has as its target HIV-1 Env pseudovirus 6041.v3.c23 (HIV-1).
The target in assay [3] is HIV-1 Env pseudovirus 6480.v4.c25 (HIV-1).
Assay [4] has as its target HIV-1 Env pseudovirus 89-F1_2_25 (HIV-1).
The target of assay [5] is HIV-1 Env pseudovirus A07412M1.vrc12 (HIV-1).
The target in assay [6] is HIV-1 Env pseudovirus BJOX025000.01.1 (HIV-1).
Assay [7] deals with HIV-1 Env pseudovirus T255-34 (HIV-1).
Assay [8] concerns the target HIV-1 Env pseudovirus X1193_c1 (HIV-1).
Assay [9] addresses HIV-1 Env pseudovirus X1632_S2_B10 (HIV-1).

For 8ANC195 (antibody), the IC50 (Titer in TZM.bl cells) is over 50 µg/mL in assay [1]; over 50 µg/mL in assay [2]; 0.16 µg/mL in assay [3]; over 50 µg/mL in [4]; 2.25 µg/mL in assay [5]; 4.96 µg/mL in assay [6]. Also, the results for the IC50 (Titer in TZM.bl cells) in assay [7], in [8] and in assay [9] were 0.54 µg/mL, 0.27 µg/mL and 0.47 µg/mL, respectively. Besides, the IC80 (Titer in TZM.bl cells) was over 50 µg/mL in assay [1]; over 50 µg/mL in assay [2]; 1.13 µg/mL in assay [3]; over 50 µg/mL in assay [4]; 7.49 µg/mL in assay [5]; over 50 µg/mL in [6]. Moreover, the IC80 (Titer in TZM.bl cells) in assay [7] came out at 8.09 µg/mL; in assay [8] it was 1.66 µg/mL; in [9], 4.11 µg/mL.

For VRC07 (antibody), the IC50 (Titer in TZM.bl cells) is 0.024 µg/mL in assay [1]; 0.018 µg/mL in assay [2]; 0.032 µg/mL in assay [3]; over 50 µg/mL in [4]; 0.11 µg/mL in assay [5]; 0.279 µg/mL in [6]. In addition, the IC50 (Titer in TZM.bl cells) is 0.227 µg/mL in [7], 0.037 µg/mL in assay [8] and 0.023 µg/mL in assay [9]. The IC80 (Titer in TZM.bl cells) in [1] is 0.075 µg/mL; in assay [2], 0.058 µg/mL; in assay [3], 0.134 µg/mL; in [4], over 50 µg/mL; in assay [5], 0.353 µg/mL; in assay [6], 2.29 µg/mL. In addition, the IC80 (Titer in TZM.bl cells) in assay [7] stood at 0.987 µg/mL; in assay [8], 0.249 µg/mL; in assay [9], 0.107 µg/mL.

Consider 3BNC117 (antibody), for which the IC50 (Titer in TZM.bl cells) in assay [1] is 0.03 µg/mL; in assay [2] it was 0.01 µg/mL; in assay [3], 0.01 µg/mL; in [4], over 50 µg/mL; in [5] it was 0.02 µg/mL; in assay [6] it was 0.05 µg/mL. Moreover, the IC50 (Titer in TZM.bl cells) in assay [7] was 0.02 µg/mL; in [8] it was 0.06 µg/mL; in assay [9], 15.7 µg/mL. The IC80 (Titer in TZM.bl cells) is 0.12 µg/mL in assay [1]; 0.07 µg/mL in assay [2]; 0.04 µg/mL in assay [3]; over 50 µg/mL in assay [4]; 0.1 µg/mL in assay [5]; 0.2 µg/mL in [6]. The IC80 (Titer in TZM.bl cells) in [7] was 0.14 µg/mL; in assay [8], 0.25 µg/mL; in assay [9] it was over 50 µg/mL.

The values are drawn from US20240117018A1.
